For experiment [1], the target named is T1, biotinylated α-cobratoxin from Naja kaouthia (Naja kaouthia, biotin through amine coupling (NHS-PEG4-Biotin), sites not stated).
T1 chain: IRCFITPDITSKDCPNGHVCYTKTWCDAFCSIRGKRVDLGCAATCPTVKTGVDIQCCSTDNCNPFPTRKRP
In words: BLI. To be noted: both partners purified.

The target of experiment [2] is T2, biotinylated α-elapitoxin-Dpp2d from Dendroaspis polylepis (Dendroaspis polylepis (black mamba), UniProt C0HJD7). Put plainly: BLI; […]; association at pH 7.4, dissociation at pH 5.5; 1:1 global fit. The conditions noted are these: both partners purified. (Biolayer interferometry detects binding as a change in optical thickness at a sensor tip.)
T2 sequence (C0HJD7 whole entry): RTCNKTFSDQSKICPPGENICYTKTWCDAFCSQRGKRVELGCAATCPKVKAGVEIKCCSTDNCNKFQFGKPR
Experiment [3] addresses T2, biotinylated α-elapitoxin-Dpp2d from …. In words: BLI; […]; association at pH 7.4, dissociation at pH 7.4; 1:1 global fit, […]. The conditions noted are these: both partners purified.
Experiment [4] concerns the target T3, biotinylated α-bungarotoxin from Bungarus multicinctus (Bungarus multicinctus). The description is as above. To be noted: both partners purified.
Experiment [5] concerns the target T4, biotinylated α-cobratoxin from Naja kaouthia (Naja kaouthia, UniProt P01391). Put plainly: DELFIA (dissociation-enhanced lanthanide fluorescence immunoassay). The conditions noted are these: one partner purified.
In experiment [6] the target is biotinylated α-bungarotoxin from Bungarus multicinctus (Bungarus multicinctus, UniProt P60615). Put plainly: BLI. The conditions noted are these: both partners purified.
Chain of biotinylated α-bungarotoxin from Bungarus multicinctus (P60615 22-95): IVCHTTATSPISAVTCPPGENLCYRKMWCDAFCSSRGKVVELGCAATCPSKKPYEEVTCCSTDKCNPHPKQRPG
Experiment [7] has as its target T4, biotinylated α-cobratoxin from Naja …. In words: BLI. The conditions noted are these: both partners purified.
Experiment [8] has as its target T3, biotinylated α-bungarotoxin from …. Put plainly: BLI; […]; association at pH 7.4, dissociation at pH 7.4; 1:1 global fit, […]. To be noted: both partners purified. This is another data set of the same source.
Experiment [9] has the same target. In words: BLI; […]; association at pH 7.4, dissociation at pH 5.5; 1:1 global fit. To be noted: both partners purified.
In experiment [10] the target is T5, biotinylated α-elapitoxin-Dpp2d from Dendroaspis polylepis (Dendroaspis polylepis (black mamba), UniProt C0HJD7). Put plainly: BLI; […]; association at pH 7.4, dissociation at pH 7.4; 1:1 model, global fit; […]. The conditions noted are these: both partners purified.
Target sequence in this assay (C0HJD7 whole entry): as the sequence (C0HJD7 whole entry) above
Experiment [11] has as its target T5, biotinylated α-elapitoxin-Dpp2d from …. Put plainly: BLI. To be noted: both partners purified.
Target sequence in this assay (C0HJD7 whole entry): as above
Experiment [12] addresses T6, α-bungarotoxin from Bungarus multicinctus (Bungarus multicinctus, UniProt P60615).
T6 construct: source: bought: Latoxan L8115, lyophilized purified protein
Put plainly: crystal structure. To be noted: both partners purified.

For experiment [13], the target named is T5, biotinylated α-elapitoxin-Dpp2d from …. Put plainly: DELFIA (dissociation-enhanced lanthanide fluorescence immunoassay). The conditions noted are these: one partner purified.

Where a chain is given by its changes, count along the chain named. Names and notes keep the numbering of the source. Values joined by “and” are separate entries in the source; they are usually repeats but may differ in a detail not shown here. Equal values may be shown once.

In general, Kd refers to the free concentration of one partner at which half of the binding sites on the other are occupied at equilibrium, for simple one-to-one binding. A lower Kd goes with higher affinity. By koff is commonly meant the rate constant with which the complex falls apart. The low end stands for slow dissociation, the high end for fast dissociation. The term kon denotes a measure of how fast the partners come together.

T3 sequence (P60615 22-95): as the sequence (P60615 22-95) above
T6 sequence (P60615 22-95): as above

B1: A12 Fab (Fab, V domains shown)
VH: QVQLVQSGAEVKKPGSSVKVSCKASGGTFSSYAISWVRQAPGQGLEWMGGIIPIFGTANYAQKFQGRVTITADESTSTAYMELRSLRSDDTAVYYCARDNLGYCSGGSCYSDYYYYYMDVWGQGTLVTVSS
VL: NFMLTQPHSVSESPGKTVTFSCTRSSGRIVSDYVHWYQQRPGSAPTTVIYEDNQRPSGVPDRFSGSIDSSSNSASLTISGLKTEDEADYYCQSYDSSNAYVVFGGGTKVTVL
As for B1, the values for the Kd in [1], in experiment [3] and in experiment [4] were 4.2 ± 0.9 nM, 1.4 ± 1.2 nM and 202 ± 28.2 nM, respectively. Besides, the koff in experiment [1] was 0.00021 s⁻¹ and 0.00053 s⁻¹; in experiment [2], 0.00036 s⁻¹; in experiment [3] it was 0.00015 s⁻¹; in [4], 0.0093 s⁻¹. In addition, the kon in experiment [1] came to 55000 M⁻¹ s⁻¹; in experiment [3], 140000 M⁻¹ s⁻¹; in experiment [4], 21000 M⁻¹ s⁻¹.

B2: A01 scFv with His95b (CDR-L3) substituted to alanine (scFv, V domains shown)
VH: B1 VH
VL: SYELTQPPSVSVAPGRTATITCEGDNIGQQIVHWYQQKPGQAPVAVISSDSDRPSGIPERFSGSNSGNTATLTISRVEAGDEADYYCQVWDSGSDAVVFGGGTKVTVL
notes: also called A01-H95bA; source: E. coli BL21(DE3), in culture supernatant
As to B2, in experiment [5], the “fold reduction of the pH 7.4/pH 5.8 ratio against the A01 scFv” value was ~3 fold.

B3: G09 Fab (Fab, V domains shown)
VH: B1 VH
VL: SYELTQPPSVSVAPGRTATITCEGDNIGQQIVHWYRQKSDQAPVVVVYDGSRRPSGIPERFSGSNSGNTATLTISRVEAGDEADYYCQVWDITSDHVVFGGGTQLTVL
On to B3, for which the binding result in [6] and in [7] was “binds” in each case.

B4: D11 scFv with serine at position 32 (CDR-L1) and histidine at position 49 (FWR-2) (scFv, V domains shown)
VH: B1 VH
VL: NFMLTQPRSVSESPGKTVTISCTRSSGSIGSDSVHWYQQRPGSSPTTVIHEDNQRPSGVPDRFSGSIDSSSNSASLTISGLKTEDEADYYCQSYDRSNHEVVFGGGTKLTVL
notes: also called D11-Y32S-Y49H (name built from the text: serine at position His32 of D11-Y32H-Y49H); source: E. coli BL21(DE3), in culture supernatant
With B4, the binding result in experiment [5] is “binds”.

B5: D11 Fab (Fab, V domains shown)
VH: B1 VH
VL: B4 VL with S33Y, H50Y
Turning to B5, the values for the Kd in [8], in experiment [1] and in experiment [3] were 116 ± 19.6 nM, 1.8 ± 0.5 nM and 1.4 ± 0.6 nM, respectively. Moreover, the koff in experiment [8] amounted to 0.0047 s⁻¹; in [9], 0.005 s⁻¹; in [1], 0.00029 s⁻¹; in [2] it was 0.00041 s⁻¹. In addition, the kon came to 13000 M⁻¹ s⁻¹ in [8], 65000 M⁻¹ s⁻¹ in experiment [1] and 121000 M⁻¹ s⁻¹ in experiment [3].

B6: D11 Fab (Fab, V domains shown)
VH: B1 VH
VL: B4 VL with S33Y, H50Y
notes: also called D11 mAb
As to B6, the binding result in [6] is “binds”. The dissociation rate constant (koff) in [7] was 0.00012 s⁻¹; in [10] it was 0.00015 s⁻¹.

B7: B11 Fab (Fab, V domains shown)
VH: B1 VH
VL: SYELTQPPSVSVAPGQTATITCGGHNIGSNIVHWYHQKPGQAPELVISHNTNRPSGIPERFSGSNSGSTATLTISRVEAVDEADYYCQVWDSSSEHVVFGGGTKVTVL
Consider B7, for which the binding result in experiment [6] and in [7] was “binds” each time.

B8: A04 Fab (Fab, V domains shown)
VH: B1 VH
VL: SYELTQPPSMSVAPGQTARITCGGDYIGGESVHWYQQKPGRAPVAVVYDDTHRPSGIPERFSGANSGNTATLTISKVEAGDEADYYCQVWDVSSDHVVFGGGTKLTVL
On to B8, for which the binding result in [6] and in [7] was “binds” each time.

B9: E01 Fab (Fab, V domains shown)
VH: B1 VH
VL: NFMLTQPRSVSESPGKTVTISCTRSSGSIGSDYVHWYQQRPGSSPTTVIYEDNRRPSGVPDRFSGSIASSANSASLTISGLRPEDEADYYCQSYDSTTNHVVFGGGTKVTVL
On to B9, for which the results for the Kd in experiment [1], in experiment [3] and in experiment [4] were 6.6 ± 0.9 nM, 1.3 ± 0.7 nM and 271 ± 31.1 nM, respectively. The kon in experiment [1] worked out at 54000 M⁻¹ s⁻¹; in experiment [3], 138000 M⁻¹ s⁻¹; in [4], 23000 M⁻¹ s⁻¹. The koff in experiment [2] came out at 0.00049 s⁻¹; in [3], 0.00014 s⁻¹; in experiment [4], 0.0173 s⁻¹.

B10: A01 Fab (Fab, V domains shown)
VH: B1 VH
VL: B2 VL with A96H
notes: also called A01 mAb
The molecule B10 displayed a koff in experiment [11] of 0.0295 s⁻¹. The binding result in experiment [6] was “binds”. In experiment [10], the Kd is 2.1 ± 0.1 nM and the koff was found to be 0.00017 s⁻¹.

B11: D11 scFv, 6xHis-FLAG removed with TEV protease (construct for crystals) (scFv, V domains shown)
VH: B1 VH
VL: B4 VL with S33Y, H50Y
notes: source: E. coli BL21(DE3), purified (HisTrap, TEV cleavage, SEC)
B11: the binding result in experiment [12] is given as “binds”.

B12: C05 scFv with T31D (CDR-L1) (scFv, V domains shown)
VH: B1 VH
VL: B1 VL with F20I, R28S, V30A, A99G, Y100S, V109L
notes: source: E. coli BL21(DE3), in culture supernatant
For B12, the binding result in [13] is on record as “binds”.

The values above are taken from PMC12439581 (mAbs, 2025).
